From US20220259295A1 (INSERM INSTITUT NATIONAL DE LA SANT ET DE LA RECHERCHE M …, published 2022)

T1: murine plasminogen activator inhibitor-1 (murine, UniProt P22777 23-402)
T1 construct: also called mPAI-1; murine PAI-1
T1 sequence (looked up): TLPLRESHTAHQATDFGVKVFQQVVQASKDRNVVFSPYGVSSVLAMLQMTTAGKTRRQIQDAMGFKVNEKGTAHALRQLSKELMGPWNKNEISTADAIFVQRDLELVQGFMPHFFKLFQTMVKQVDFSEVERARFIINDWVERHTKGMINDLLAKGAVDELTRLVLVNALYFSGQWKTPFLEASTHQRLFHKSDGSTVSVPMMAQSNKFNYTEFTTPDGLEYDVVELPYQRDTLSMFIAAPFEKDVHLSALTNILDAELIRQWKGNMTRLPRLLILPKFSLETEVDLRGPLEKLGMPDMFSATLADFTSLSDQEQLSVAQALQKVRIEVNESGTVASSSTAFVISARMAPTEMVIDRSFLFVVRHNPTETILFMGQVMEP

T2: murine protease nexin-1 (murine, UniProt Q07235 20-397)
T2 sequence (looked up): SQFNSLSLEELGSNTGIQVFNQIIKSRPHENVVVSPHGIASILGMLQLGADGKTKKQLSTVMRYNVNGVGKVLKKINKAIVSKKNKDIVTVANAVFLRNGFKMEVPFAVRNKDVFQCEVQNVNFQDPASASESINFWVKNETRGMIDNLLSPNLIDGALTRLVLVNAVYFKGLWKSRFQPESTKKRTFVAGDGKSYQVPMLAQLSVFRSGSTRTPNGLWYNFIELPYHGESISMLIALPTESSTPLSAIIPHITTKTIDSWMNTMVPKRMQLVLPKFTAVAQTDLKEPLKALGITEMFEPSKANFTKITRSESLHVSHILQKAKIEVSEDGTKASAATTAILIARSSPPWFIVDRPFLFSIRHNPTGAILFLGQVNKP

T3: human protease nexin-1 (human, UniProt P07093 20-398)
T3 sequence (looked up): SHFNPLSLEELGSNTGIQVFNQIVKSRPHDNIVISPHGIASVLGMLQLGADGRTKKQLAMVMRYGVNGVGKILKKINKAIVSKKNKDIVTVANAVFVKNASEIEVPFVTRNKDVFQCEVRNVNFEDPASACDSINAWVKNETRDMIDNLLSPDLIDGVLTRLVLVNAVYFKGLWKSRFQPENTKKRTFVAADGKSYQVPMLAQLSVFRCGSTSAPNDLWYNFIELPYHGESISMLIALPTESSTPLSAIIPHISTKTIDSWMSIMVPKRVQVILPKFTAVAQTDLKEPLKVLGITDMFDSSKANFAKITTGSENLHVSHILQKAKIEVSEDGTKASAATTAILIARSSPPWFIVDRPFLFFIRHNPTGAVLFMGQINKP

T4: PN-1 released from TRAP-activated platelets (Homo sapiens (Human), UniProt P07093 20-398)
T4 sequence: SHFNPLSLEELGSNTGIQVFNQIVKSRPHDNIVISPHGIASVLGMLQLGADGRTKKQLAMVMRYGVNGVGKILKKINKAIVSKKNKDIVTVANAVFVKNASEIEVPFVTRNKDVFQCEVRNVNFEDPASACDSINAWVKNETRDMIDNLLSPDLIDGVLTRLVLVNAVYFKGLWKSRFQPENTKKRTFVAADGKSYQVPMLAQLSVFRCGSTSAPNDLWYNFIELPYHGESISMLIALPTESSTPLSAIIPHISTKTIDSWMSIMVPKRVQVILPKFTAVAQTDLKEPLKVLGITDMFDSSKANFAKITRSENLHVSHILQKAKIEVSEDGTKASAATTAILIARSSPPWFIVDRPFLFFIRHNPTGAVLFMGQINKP

T5: human protease nexin-1 (human, UniProt P07093 20-398)
T5 chain: T3 sequence (looked up)

T6: murine protease nexin-1 (murine, UniProt Q07235 20-397)
T6 chain: T2 sequence (looked up)

B1: A08 (VHH)
VHH: EVQLQASGGGFVQPGGSLRLSCAASGYYSYSSTMGWFRQAPGKEREFVSAISFYSDMAHYYADSVKGRFTISRDNSKNTVYLQMNSLRAEDTATYYCAAFSKLGKIKYWGQGTQVTVSS
notes: Monovalent VHH from the synthetic hs2dAb library; His-tagged, detected by anti-cMyc or anti-6xHis; also called VHH A08; single domain antibody A08; not shown: cMyc tag and 6xHis tag (pHEN2 vector)
B2: F06 (VHH)
VHH: EVQLQASGGGFVQPGGSLRLSCAASGDTWSLEIMGWFRQAPGKEREFVSAISSEDGWHAYYADSVKGRFTISRDNSKNTVYLQMNSLRAEDTATYYCAKIENWIQAVEGEMSDYWGQGTQVTVSS
notes: Monovalent VHH from the synthetic hs2dAb library; His-tagged, detected by anti-cMyc or anti-6xHis; also called VHH F06; single domain antibody F06; not shown: cMyc tag and 6xHis tag (pHEN2 vector)
B3: B11 (VHH)
VHH: EVQLQASGGGFVQPGGSLRLSCAASGSTWFREIMGWFRQAPGKEREFVSAISSDPTWHAYYADSVKGRFTISRDNSKNTVYLQMNSLRAEDTATYYCAPLAGTESIHWWDPWHESSYWGQGTQVTVSS
notes: Monovalent VHH from the synthetic hs2dAb library, made in E. coli WK6, purified by its His tag, detected by anti-cMyc or anti-6xHis; also called VHH B11; BI 1; not shown: cMyc tag and 6xHis tag (pHEN2 vector)
B4: B11-F06 (VHH)
chain: EVQLQASGGGFVQPGGSLRLSCAASGSTWFREIMGWFRQAPGKEREFVSAISSDPTWHAYYADSVKGRFTISRDNSKNTVYLQMNSLRAEDTATYYCAPLAGTESIHWWDPWHESSYWGQGTQVTVSSGGGSGGGSGGGSGGGSEVQLQASGGGFVQPGGSLRLSCAASGDTWSLEIMGWFRQAPGKEREFVSAISSEDGWHAYYADSVKGRFTISRDNSKNTVYLQMNSLRAEDTATYYCAKIENWIQAVEGEMSDYWGQGTQVTVSSHHHHHH
notes: Bivalent (biparatopic) tandem B11-linker-F06; also called bivalent hybribody B11-F06; bivalent VHH B11F06
B5: B11-A08 (VHH)
chain: EVQLQASGGGFVQPGGSLRLSCAASGSTWFREIMGWFRQAPGKEREFVSAISSDPTWHAYYADSVKGRFTISRDNSKNTVYLQMNSLRAEDTATYYCAPLAGTESIHWWDPWHESSYWGQGTQVTVSSGGGSGGGSGGGSGGGSEVQLQASGGGFVQPGGSLRLSCAASGYYSYSSTMGWFRQAPGKEREFVSAISFYSDMAHYYADSVKGRFTISRDNSKNTVYLQMNSLRAEDTATYYCAAFSKLGKIKYWGQGTQVTVSSHHHHHH
notes: Bivalent (biparatopic) tandem B11-linker-A08; also called bivalent hybribody B11-A08; bivalent VHH B11A08
B6: B11-Bv (VHH)
chain: EVQLQASGGGFVQPGGSLRLSCAASGSTWFREIMGWFRQAPGKEREFVSAISSDPTWHAYYADSVKGRFTISRDNSKNTVYLQMNSLRAEDTATYYCAPLAGTESIHWWDPWHESSYWGQGTQVTVSSAAAEVQLQASGGGFVQPGGSLRLSCAASGSTWFREIMGWFRQAPGKEREFVSAISSDPTWHAYYADSVKGRFTISRDNSKNTVYLQMNSLRAEDTATYYCAPLAGTESIHWWDPWHESSYWGQGTQVTVSSHHHHHH
notes: Bivalent (monoparatopic) tandem of two B11 VHHs; also called bivalent hybribody B11-Bv; bivalent VHH B11bv

The binders below were run against T7, human plasminogen activator inhibitor-1 (human, UniProt P05121 24-402) (assay: non-adsorbed phage ELISA, phage on coated hPAI-1, anti-M13 detection).
T7 construct: also called hPAI-1; human PAI-1
T7 sequence (P05121 24-402 limits assumed): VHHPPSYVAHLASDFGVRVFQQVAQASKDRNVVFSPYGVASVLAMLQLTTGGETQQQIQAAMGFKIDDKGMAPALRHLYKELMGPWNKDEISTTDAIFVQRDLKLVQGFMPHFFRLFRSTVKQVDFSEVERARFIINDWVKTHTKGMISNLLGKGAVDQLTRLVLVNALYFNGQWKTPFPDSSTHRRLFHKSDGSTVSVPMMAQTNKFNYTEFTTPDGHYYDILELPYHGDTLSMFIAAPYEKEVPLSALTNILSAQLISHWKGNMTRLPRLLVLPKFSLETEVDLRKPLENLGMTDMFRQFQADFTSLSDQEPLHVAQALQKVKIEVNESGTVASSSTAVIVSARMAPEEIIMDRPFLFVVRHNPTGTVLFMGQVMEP

B1: no binding.

The binders below were run against T7, human plasminogen activator inhibitor-1 (assay: ELISA, PAI-1 captured on anti-PAI-1 mAb, anti-6xHis detection).

B2: no binding (tested: 10 µg/mL).

The binders below were run against T1, murine plasminogen activator inhibitor-1 in the same assay as above.

B1: no binding (tested: 10 µg/mL).
B3: no binding (tested: 10 µg/mL).
B2: no binding (tested: 10 µg/mL).

What follows are binders tested against T2, murine protease nexin-1 (assay: cell-based or functional assay).

Point of comparison: B4, “IC50 (thrombin activity assay, 10 nM PN-1, 1 nM thrombin)” value 414 nM. Against it:
- B1 — 7-fold higher, 2880 nM
- B3 — 3.8-fold higher, 1580 nM
- B5 — within 1.5-fold, 524 nM
- B2 — within 1.5-fold, 560 nM
- B6 — 2-fold higher, 825 nM

Point of comparison: B3, “recovery of thrombin activity (percentage of thrombin alone; 1 nM thrombin, 10 nM PN-1, 10 µM VHH)” value 92%. Against it:
- B1 — higher, 94%
- B2 — higher, 96%

Point of comparison: B6, “modified prothrombin time (PT), murine plasma with 62.5 nM mPN-1 and 288 nM bivalent VHH” value 83.5 s. Against it:
- B4 — lower, 83.3 s
- B5 — higher, 93.2 s

What follows are binders tested against T3, human protease nexin-1 (assay: cell-based or functional assay).

Point of comparison: B1, “IC50 (thrombin activity assay, 10 nM PN-1, 1 nM thrombin)” value 960 nM. Against it:
- B4 — 15-fold lower, 62 nM
- B3 — 19-fold lower, 50 nM
- B5 — 6.8-fold lower, 142 nM
- B2 — 3.3-fold lower, 290 nM
- B6 — 23-fold lower, 41 nM

Point of comparison: B1, “recovery of thrombin activity (percentage of thrombin alone; 1 nM thrombin, 10 nM PN-1, 10 µM VHH)” value 100%. Against it:
- B3 — the same, 100%
- B2 — the same, 100%

What follows are binders tested against T4, PN-1 released from TRAP-activated … (assay: cell-based or functional assay).

Point of comparison: B4, “thrombin activity restored (supernatant of TRAP-activated platelets, 0.1 nM thrombin, 1 µM bivalent VHH)” value 88%. Against it:
- B5 — higher, 100%
- B6 — higher, 97%

Molecular target: T5, human protease nexin-1
Test: inhibition of PN-1 activity (residual thrombin activity, chromogenic substrate)

Point of comparison: B6, IC50 40 nM. Against it:
- B4 — 1.7-fold higher, 68 nM
- B5 — 3.5-fold higher, 139 nM

Molecular target: T6, murine protease nexin-1
Test: as above

Point of comparison: B4, IC50 254 nM. Against it:
- B5 — 1.6-fold higher, 395 nM
- B6 — 2-fold higher, 509 nM

Molecular target: T5, human protease nexin-1
Test: as above
Remark: another data set of the same source

Point of comparison: B2, IC50 230 nM. Against it:
- B1 — 5.1-fold higher, 1170 nM
- B3 — 3.8-fold lower, 60 nM

Molecular target: T6, murine protease nexin-1
Test: as above
Remark: another data set of the same source

Point of comparison: B1, IC50 3540 nM. Against it:
- B3 — 2.8-fold lower, 1270 nM
- B2 — 5.3-fold lower, 670 nM

What follows are binders tested against T7, human plasminogen activator inhibitor-1 (assay: specificity test of Example 1 (refers to FIG. 2E-G)).

B4: no binding.
B3: no binding.
B5: no binding.
B6: no binding.
